Experimental data reported in article PMC5798343.
Blank lines part the entries; values can stand above or below the substance they belong to.

Key:
Experiment in all cases: SEC
[1] = target: ΔNp63α R279H in the V603D background
ΔNp63α R304Q/V603D = target: ΔNp63α R304Q/V603D
ΔNp63α V603D = target: ΔNp63α V603D

stoichiometry N [1]: 4
Substance: ΔNp63α R279H in the V603D background (natural protein)

stoichiometry N (ΔNp63α R304Q/V603D): 4
Substance: ΔNp63α R304Q/V603D (natural protein)

stoichiometry N (ΔNp63α V603D): 4
Substance: ΔNp63α V603D (natural protein)
